Data as given in the supplement of paper PMC10065799, “High-throughput profiling of sequence recognition by tyrosine kinases and SH2 domains using bacterial peptide display” (eLife, 2023).

What was measured:
[1] = test system: AncSZ; test: phosphorylation enrichment, bacterial display (enrichment ratio); higher = better substrate or ligand; peptides without Tyr show the background
[2] = molecular target: EPHB1 (UniProt P54762); test: as above
[3] = molecular target: EPHB2 (UniProt P29323); test: as above
[4] = molecular target: FGFR1 (UniProt P11362); test: as above
[5] = molecular target: FGFR3 (UniProt P22607); test: as above
[6] = test system: Fer (mouse); test: as above
[7] = molecular target: Fes (UniProt P07332); test: as above
[8] = molecular target: Fyn (UniProt P06241); test: as above
[9] = molecular target: Hck (UniProt P08631); test: as above
[10] = molecular target: Jak2 (UniProt O60674); test: as above
[11] = molecular target: MERTK (UniProt Q12866); test: as above
[12] = test system: c-Abl (mouse); test: as above
[13] = test system: c-Src; test: as above
[14] = molecular target: Grb2 SH2 (UniProt P62993); test: SH2 binding enrichment of the phosphorylated peptide, bacterial display (enrichment ratio); higher = better substrate or ligand; peptides without Tyr show the background
[15] = molecular target: SHP2-C SH2; test: as above
[16] = molecular target: c-Src SH2; test: as above
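Throughout, for SH2 binding enrichment of the phosphorylated peptide, bacterial display: peptide library displayed on the E. coli surface as eCPX fusions, selected cells deep-sequenced, score is each peptide's frequency after selection divided by its frequency in the input.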
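Throughout, for phosphorylation enrichment, bacterial display: 11-residue human phosphosite peptides and single-mutation variants displayed on the E. coli surface, counted by deep sequencing, each peptide's frequency after selection divided by its frequency in the unselected input library; frequency after pTyr selection over input frequency; kinase dosed for 20-30% of maximal phosphorylation in three min.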

EPHB2, sequence (P29323 whole entry, looked up): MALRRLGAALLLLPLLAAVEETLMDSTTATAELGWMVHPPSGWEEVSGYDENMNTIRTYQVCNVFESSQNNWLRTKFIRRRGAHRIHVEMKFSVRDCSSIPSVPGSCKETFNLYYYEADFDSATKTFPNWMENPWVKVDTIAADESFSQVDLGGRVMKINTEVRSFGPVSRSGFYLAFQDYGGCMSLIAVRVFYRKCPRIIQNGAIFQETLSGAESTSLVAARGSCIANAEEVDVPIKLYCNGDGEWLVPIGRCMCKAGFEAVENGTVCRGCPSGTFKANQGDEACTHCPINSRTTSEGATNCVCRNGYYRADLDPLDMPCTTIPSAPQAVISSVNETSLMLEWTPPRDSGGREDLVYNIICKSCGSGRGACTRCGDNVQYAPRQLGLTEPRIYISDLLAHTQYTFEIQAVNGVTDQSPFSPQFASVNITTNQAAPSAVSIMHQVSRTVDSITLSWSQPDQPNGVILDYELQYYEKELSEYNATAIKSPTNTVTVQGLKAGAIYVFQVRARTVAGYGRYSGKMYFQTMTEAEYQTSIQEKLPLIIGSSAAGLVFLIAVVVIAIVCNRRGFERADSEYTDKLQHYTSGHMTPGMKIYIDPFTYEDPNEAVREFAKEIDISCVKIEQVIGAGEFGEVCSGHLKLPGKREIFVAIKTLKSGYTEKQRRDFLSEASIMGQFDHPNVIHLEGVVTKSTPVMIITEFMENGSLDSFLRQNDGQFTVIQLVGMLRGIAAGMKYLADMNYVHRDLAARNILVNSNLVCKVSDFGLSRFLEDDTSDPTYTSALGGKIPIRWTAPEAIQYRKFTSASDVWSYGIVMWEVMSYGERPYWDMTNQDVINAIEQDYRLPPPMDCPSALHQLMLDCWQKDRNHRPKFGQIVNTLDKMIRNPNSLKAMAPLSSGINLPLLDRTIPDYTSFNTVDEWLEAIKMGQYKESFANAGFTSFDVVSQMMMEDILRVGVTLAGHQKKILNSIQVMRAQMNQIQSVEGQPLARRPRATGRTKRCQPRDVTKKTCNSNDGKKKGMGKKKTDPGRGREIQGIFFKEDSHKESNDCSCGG
Jak2, sequence (O60674 whole entry, looked up): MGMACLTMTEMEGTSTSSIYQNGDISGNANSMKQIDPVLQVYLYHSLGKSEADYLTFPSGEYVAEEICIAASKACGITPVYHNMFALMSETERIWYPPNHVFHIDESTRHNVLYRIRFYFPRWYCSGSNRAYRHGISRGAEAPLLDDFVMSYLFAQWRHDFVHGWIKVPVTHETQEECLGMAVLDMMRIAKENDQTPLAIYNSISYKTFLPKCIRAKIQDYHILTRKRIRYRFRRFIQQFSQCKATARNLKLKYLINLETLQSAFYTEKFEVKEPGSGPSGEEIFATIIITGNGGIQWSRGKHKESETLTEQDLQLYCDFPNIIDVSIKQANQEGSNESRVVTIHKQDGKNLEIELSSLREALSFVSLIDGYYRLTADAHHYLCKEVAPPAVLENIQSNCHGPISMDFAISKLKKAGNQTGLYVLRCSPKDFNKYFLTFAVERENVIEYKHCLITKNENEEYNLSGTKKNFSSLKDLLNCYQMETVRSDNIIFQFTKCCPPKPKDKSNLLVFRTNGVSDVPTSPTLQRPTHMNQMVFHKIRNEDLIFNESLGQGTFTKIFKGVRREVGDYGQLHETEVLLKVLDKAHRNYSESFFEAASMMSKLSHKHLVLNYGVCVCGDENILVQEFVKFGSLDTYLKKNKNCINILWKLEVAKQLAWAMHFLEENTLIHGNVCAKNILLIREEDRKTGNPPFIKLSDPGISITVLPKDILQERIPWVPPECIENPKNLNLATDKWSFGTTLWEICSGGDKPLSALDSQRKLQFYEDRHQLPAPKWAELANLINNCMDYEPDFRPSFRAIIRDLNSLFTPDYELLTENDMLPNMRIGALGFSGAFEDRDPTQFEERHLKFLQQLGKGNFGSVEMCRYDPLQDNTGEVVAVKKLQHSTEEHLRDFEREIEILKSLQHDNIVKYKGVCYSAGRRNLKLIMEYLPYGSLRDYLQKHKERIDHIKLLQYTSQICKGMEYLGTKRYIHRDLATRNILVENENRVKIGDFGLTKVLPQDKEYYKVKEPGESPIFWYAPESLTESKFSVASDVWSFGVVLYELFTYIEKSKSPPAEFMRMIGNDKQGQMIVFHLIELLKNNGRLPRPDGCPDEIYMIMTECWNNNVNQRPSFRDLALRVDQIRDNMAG
FGFR3, sequence (P22607 whole entry, looked up): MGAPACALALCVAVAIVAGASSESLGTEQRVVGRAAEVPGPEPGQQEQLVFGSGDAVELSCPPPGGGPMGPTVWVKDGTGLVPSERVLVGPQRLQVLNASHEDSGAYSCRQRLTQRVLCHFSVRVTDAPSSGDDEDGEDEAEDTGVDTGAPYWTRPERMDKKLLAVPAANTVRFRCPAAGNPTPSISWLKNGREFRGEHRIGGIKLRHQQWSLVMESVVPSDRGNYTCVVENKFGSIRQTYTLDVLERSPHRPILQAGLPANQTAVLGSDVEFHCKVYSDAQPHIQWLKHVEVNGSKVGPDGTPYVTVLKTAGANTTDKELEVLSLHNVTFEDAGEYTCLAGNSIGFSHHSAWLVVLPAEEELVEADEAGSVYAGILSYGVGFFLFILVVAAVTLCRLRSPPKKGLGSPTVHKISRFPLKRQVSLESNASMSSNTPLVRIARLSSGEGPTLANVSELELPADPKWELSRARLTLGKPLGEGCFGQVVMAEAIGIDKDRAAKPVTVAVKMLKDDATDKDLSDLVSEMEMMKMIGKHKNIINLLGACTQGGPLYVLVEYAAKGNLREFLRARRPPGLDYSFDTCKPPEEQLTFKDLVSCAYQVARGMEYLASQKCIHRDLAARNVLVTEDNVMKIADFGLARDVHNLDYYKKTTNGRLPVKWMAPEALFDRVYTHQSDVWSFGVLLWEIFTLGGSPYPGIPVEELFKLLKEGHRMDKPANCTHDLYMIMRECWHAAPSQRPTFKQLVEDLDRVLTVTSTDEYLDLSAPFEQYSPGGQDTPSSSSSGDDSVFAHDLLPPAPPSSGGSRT
Hck, sequence (P08631 whole entry, looked up): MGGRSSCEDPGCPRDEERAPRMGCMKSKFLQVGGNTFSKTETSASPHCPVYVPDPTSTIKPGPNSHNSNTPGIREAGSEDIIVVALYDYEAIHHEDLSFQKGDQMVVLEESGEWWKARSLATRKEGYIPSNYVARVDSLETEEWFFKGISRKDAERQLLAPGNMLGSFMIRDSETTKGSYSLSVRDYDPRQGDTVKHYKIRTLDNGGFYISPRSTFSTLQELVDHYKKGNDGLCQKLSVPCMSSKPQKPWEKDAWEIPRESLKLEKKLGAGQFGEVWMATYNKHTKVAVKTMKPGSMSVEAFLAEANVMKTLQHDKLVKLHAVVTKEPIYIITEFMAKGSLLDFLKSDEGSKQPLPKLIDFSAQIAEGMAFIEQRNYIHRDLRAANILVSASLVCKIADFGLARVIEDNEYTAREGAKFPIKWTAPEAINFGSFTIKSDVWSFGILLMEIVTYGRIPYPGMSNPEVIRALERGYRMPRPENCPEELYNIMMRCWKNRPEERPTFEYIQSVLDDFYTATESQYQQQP
FGFR1, sequence (P11362 whole entry, looked up): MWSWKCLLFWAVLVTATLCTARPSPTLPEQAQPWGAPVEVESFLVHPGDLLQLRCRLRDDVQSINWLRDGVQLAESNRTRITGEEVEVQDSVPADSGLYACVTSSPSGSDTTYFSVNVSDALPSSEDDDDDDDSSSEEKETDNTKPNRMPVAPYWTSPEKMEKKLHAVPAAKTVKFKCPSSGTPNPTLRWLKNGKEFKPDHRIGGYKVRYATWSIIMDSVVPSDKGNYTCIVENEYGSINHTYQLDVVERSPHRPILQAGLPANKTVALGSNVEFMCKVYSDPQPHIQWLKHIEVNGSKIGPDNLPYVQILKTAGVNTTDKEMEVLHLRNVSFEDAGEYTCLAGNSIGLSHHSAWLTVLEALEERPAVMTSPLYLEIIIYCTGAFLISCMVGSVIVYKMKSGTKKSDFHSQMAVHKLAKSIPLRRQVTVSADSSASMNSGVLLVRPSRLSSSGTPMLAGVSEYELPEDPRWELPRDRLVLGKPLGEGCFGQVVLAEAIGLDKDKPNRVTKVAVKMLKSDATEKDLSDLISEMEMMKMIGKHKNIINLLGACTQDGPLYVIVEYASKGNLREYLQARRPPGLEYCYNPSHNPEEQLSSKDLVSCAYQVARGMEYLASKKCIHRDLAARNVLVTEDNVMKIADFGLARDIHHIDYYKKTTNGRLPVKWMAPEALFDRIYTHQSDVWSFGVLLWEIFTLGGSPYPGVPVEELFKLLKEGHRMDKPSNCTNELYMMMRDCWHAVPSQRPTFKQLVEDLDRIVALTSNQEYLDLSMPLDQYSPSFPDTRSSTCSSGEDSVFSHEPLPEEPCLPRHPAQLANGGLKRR
Fyn, sequence (P06241 whole entry, looked up): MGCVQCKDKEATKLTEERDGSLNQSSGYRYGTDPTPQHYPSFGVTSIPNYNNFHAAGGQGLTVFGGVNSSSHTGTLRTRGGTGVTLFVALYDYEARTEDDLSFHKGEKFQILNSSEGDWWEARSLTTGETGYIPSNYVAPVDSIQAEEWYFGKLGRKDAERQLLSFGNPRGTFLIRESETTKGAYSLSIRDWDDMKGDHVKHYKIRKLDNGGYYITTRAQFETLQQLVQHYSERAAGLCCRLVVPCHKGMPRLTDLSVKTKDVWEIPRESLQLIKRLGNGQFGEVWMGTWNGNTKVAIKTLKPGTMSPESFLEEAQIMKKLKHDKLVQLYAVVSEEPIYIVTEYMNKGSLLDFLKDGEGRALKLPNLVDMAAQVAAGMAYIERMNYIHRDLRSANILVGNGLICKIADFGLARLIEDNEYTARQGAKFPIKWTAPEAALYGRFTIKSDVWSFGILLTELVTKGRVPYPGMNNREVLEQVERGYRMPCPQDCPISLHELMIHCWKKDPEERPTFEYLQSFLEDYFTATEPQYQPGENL

| Sequence | phosphorylation enrichment [1] | phosphorylation enrichment [2] | phosphorylation enrichment [3] | phosphorylation enrichment [4] | phosphorylation enrichment [5] | phosphorylation enrichment [6] | phosphorylation enrichment [7] | phosphorylation enrichment [8] | phosphorylation enrichment [9] | phosphorylation enrichment [10] | phosphorylation enrichment [11] | phosphorylation enrichment [12] | phosphorylation enrichment [13] | SH2 binding enrichment [14] | SH2 binding enrichment [15] | SH2 binding enrichment [16] |
| --- | --- | --- | --- | --- | --- | --- | --- | --- | --- | --- | --- | --- | --- | --- | --- | --- |
| PESIPYRKFTT [NTRK1_Y701_L700P] | 0.823 | 0.598 | 0.668 | 0.594 | 0.936 | 0.353 | 0.917 | 0.375 | 0.721 | 0.992 | 0.86 | 0.879 | 0.485 | 0.747 | 0.507 | 0.476 |
| PESTLYRKFTT [NTRK1_Y701_I699T] | 1.01 | 0.433 | 0.275 | 0.646 | 0.644 | 0.448 | 0.83 | 0.347 | 0.608 | 0.812 | 0.399 | 1.12 | 0.467 | 0.879 | 0.538 | 0.444 |
| PEVRRYVLPLN [RPE65_Y368] | 1.41 | 1.3 | 0.811 | 0.606 | 1.3 | 0.893 | 1.45 | 0.597 | 0.916 | 1.2 | 0.92 | 1.44 | 0.804 | 0.807 | 0.64 | 0.878 |
| PFRSIYFSSPK [MPG_Y75_YF] | 0.851 | 0.382 | 0.571 | 0.599 | 0.809 | 0.595 | 0.666 | 0.658 | 1.11 | 0.553 | 0.463 | 0.398 | 0.669 | 0.843 | 0.565 | 0.447 |
| PGLSSYGVPGS [FLNB_Y1530_A1534G] | 0.774 | 0.494 | 0.578 | 0.623 | 0.643 | 0.508 | 0.786 | 0.598 | 0.543 | 0.355 | 0.622 | 0.715 | 0.454 | 0.934 | 0.611 | 0.534 |
| PGVNFYFQVSA | 1.41 | 1.27 | 1.24 | 0.557 | 1 | 0.724 | 1.93 | 0.414 | 0.526 | 1.61 | 0.445 | 1.29 | 0.523 | 0.682 | 0.524 | 0.446 |
| PINEPYGDDLD [JUP_Y693_M697L] | 1.35 | 0.799 | 0.921 | 0.873 | 0.988 | 0.734 | 1.16 | 0.781 | 0.532 | 1.16 | 0.653 | 0.972 | 0.696 | 0.727 | 0.568 | 0.655 |
| PKEQKYSFLQD [GH1_Y68_N73D] | 0.948 | 0.605 | 0.693 | 0.597 | 0.532 | 0.435 | 1.16 | 0.523 | 0.619 | 0.809 | 0.858 | 1.05 | 0.628 | 0.945 | 0.895 | 1.15 |
| PKEQRYSFLQN [GH1_Y68_K67R] | 1.27 | 0.75 | 0.901 | 1.12 | 0.617 | 0.902 | 1.44 | 0.605 | 0.904 | 1.62 | 6.49 | 0.744 | 0.631 | 1.04 | 1.11 | 2.17 |
| PLDNLYAEPAV [PRPS1_Y146_V142L] | 2.72 | 9.6 | 12.9 | 0.719 | 1.09 | 4.92 | 1.66 | 2.13 | 4.65 | 1.83 | 8.88 | 10.6 | 2.06 | 0.995 | 0.655 | 0.486 |
| PLGKDYRKAEG [MAP1A_Y1909] | 0.68 | 0.512 | 0.532 | 0.691 | 0.787 | 0.655 | 0.941 | 0.72 | 0.945 | 0.378 | 0.589 | 0.505 | 0.456 | 0.884 | 0.647 | 0.408 |
| PLQNTYNYNVL [SLC4A1_Y553_K551N] | 0.634 | 0.939 | 1.6 | 0.37 | 0.545 | 0.233 | 0.894 | 0.65 | 0.6 | 0.67 | 0.737 | 1.51 | 0.745 | 0.81 | 0.865 | 2.12 |
| PMWHPYKVDVT [TP53TG5_Y255] | 1.09 | 0.753 | 0.54 | 0.561 | 0.872 | 0.611 | 1.27 | 1.3 | 0.5 | 0.643 | 0.398 | 0.433 | 2.06 | 0.525 | 0.487 | 0.436 |
| PNKAVYTKMMT [G6PD_Y401_E398K] | 0.65 | 0.467 | 0.519 | 0.661 | 0.423 | 0.656 | 0.562 | 0.422 | 0.437 | 0.59 | 0.332 | 0.426 | 0.601 | 0.959 | 4.8 | 3.63 |
| PPEFSYGLQTQ [SRA1_Y35_Q32E] | 0.724 | 0.565 | 0.802 | 0.568 | 0.772 | 0.453 | 1.09 | 0.446 | 0.416 | 0.997 | 0.428 | 0.661 | 0.486 | 1.06 | 0.601 | 0.601 |
| PPGRSYSPCDF [TNS1_Y793_Y796C_YF] | 1.01 | 0.895 | 0.858 | 0.716 | 0.816 | 0.689 | 1.16 | 0.431 | 0.639 | 0.679 | 0.676 | 0.902 | 0.649 | 1.25 | 0.839 | 0.696 |
| PQGVRYTFTID [DCX_Y103_I104T_YF] | 1.41 | 0.768 | 1.04 | 0.521 | 1.36 | 0.796 | 1.66 | 0.7 | 0.642 | 1.48 | 0.356 | 1.55 | 0.529 | 0.786 | 0.729 | 0.452 |
